Measurements: US20220119509A1 (ARGENX, published 2022)
Numbering of substitutions follows the chain as printed. Names and notes keep the numbering of the source.

T1: mouse C2 (mouse, UniProt P21180 19-760, limits assumed)
T1 sequence (looked up): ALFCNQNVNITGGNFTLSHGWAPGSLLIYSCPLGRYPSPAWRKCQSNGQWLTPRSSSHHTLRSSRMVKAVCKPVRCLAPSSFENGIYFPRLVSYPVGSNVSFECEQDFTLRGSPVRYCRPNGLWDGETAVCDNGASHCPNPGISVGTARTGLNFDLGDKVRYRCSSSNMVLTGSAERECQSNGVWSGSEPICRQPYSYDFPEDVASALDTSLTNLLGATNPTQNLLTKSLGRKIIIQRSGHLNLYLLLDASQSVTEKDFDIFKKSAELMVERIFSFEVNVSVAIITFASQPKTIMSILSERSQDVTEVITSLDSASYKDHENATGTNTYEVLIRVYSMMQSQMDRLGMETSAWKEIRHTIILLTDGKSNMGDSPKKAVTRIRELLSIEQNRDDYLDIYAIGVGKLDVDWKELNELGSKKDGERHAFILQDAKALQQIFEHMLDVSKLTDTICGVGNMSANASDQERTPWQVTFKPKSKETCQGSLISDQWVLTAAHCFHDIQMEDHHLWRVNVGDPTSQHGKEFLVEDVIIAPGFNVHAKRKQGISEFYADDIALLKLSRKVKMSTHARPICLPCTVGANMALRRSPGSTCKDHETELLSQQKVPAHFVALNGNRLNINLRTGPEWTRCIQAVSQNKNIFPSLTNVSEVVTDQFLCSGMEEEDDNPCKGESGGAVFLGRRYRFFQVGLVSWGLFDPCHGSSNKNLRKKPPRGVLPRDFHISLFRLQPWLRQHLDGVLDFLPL

T2: huC2b with mouse S2 (huC2b-mS2) (mouse, UniProt P06681 21-243 (human entry))
T2 chain: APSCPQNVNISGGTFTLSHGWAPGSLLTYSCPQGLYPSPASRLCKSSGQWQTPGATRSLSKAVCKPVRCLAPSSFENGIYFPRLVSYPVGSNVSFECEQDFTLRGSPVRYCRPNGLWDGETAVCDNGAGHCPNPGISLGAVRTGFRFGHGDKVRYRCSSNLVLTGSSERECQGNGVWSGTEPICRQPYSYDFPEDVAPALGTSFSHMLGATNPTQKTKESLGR

T3: wild type C2 with C-terminal FLAG tag (human, UniProt P06681 21-752)
T3 construct: Secreted into the supernatant of transfected HEK293T cells; not shown: C-terminal FLAG tag
T3 sequence: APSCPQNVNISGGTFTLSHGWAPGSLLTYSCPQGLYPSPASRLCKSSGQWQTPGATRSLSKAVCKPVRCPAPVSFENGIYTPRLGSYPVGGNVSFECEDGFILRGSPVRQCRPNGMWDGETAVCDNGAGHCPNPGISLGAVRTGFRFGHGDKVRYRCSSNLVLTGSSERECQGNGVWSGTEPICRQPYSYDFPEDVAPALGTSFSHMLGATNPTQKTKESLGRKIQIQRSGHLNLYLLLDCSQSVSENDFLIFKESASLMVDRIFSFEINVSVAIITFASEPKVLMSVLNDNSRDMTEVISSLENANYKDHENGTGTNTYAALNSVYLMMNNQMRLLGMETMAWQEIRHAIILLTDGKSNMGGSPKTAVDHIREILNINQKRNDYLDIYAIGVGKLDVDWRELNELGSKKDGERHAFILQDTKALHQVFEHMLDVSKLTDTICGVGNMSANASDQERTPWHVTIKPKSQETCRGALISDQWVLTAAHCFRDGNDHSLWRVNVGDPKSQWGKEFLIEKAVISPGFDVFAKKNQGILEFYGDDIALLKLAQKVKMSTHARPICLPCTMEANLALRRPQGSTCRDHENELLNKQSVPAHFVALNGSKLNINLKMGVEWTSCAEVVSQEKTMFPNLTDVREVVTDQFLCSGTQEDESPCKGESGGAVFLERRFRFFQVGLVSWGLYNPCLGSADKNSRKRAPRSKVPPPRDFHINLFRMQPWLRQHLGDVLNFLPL

T4: human C2b fragment (huC2b) (human, UniProt P06681 21-243)
T4 construct: Supernatant of transfected HEK293 cells; not shown: FLAG tag (the construct is detected with anti-FLAG)
T4 sequence: T2 chain with L70P, S73V, F81T, V85G, S91G, Q99D, D100G, T102I, Y110Q, L116M

T5: human complement factor C2 (human, UniProt P06681 21-752)
T5 construct: also called human C2; recombinant human C2
T5 sequence: T3 sequence

B1: anti-C2-5F2.4 mAb (human IgG4 S241P VH4/VL3 LC-13/03-163A Bioceros) (antibody, V domains shown)
VH: EVQLVQSGAEVKKPGASVKVSCKASGYTFTDYNMDWVRQATGQGLEWIGDINPNYESTGYNQKFKGRATMTVNKSISTAYMELSSLRSEDTAVYYCAREDDHDAFAYWGQGTLVTVSS
VL: DNVLTQSPDSLAVSLGERATISCRASKSVRTSGYNYMHWYQQKPGQPPKLLIYLASNLKSGVPDRFSGSGSGTDFTLTISSLQAEDAATYYCQHSRELPYTFGQGTKLEIK
notes: Human IgG4 S241P; also called humanized 5F2.4
B2: Fab of ARGX-117 (Fab, V domains shown)
VH: B1 VH with N73D
VL: B1 VL

Legend:
mouse C2 = target: T1, mouse C2; assay: not described
[1] = target: T2, huC2b with mouse S2 (huC2b-mS2); assay: sandwich ELISA: coated anti-C2-5F2.4, HEK293 supernatant, detection with anti-FLAG
[2] = target: T3, wild type C2 with C-terminal FLAG tag; assay: sandwich ELISA: coated anti-C2-5F2.4, HEK293 supernatant diluted 20 times, detection with anti-FLAG
Procedure: FIG. 12 depicts results obtained with a domain swap ELISA performed with anti-C2-5F2.4. Anti-C2-5F2.4 mAb (human IgG4 S241P VH4/VL3 LC-13/03-163A Bioceros) was used for coating, plates were incubated with 20 times diluted supernatant of HEK293 transfectants, and binding was detected by an anti-FLAG Ab. Representative results from two independent experiments with similar outcome.
Next, the recognition of the swap mutants by the anti-C2-5F2.4 antibody was investigated. To this effect, microplates (Maxisorp, NUNC, Cat #439454) were coated overnight with 2 μg/mL anti-C2-5F2.4 in 100 μL PBS. Plates were washed 4 times with PBS with 0.05% Tween-20 and blocked with 200 μL PBS with 0.1% Tween-20 with 1% bovine serum albumin (BSA) (PBST-BSA) for 1 hour at RT. After washing, 100 μL culture supernatant containing mutants were added 20× diluted in PBST-BSA and incubated for 2 hours at RT with agitation. After washing, as detection antibody 1 μg/mL biotinylated anti-FLAG (clone M2, Sigma-Aldrich) was added in PBST-BSA for 1 hour at RT. The plate was washed and 1 μg/mL streptavidin-POD conjugate (Roche, Cat #11089153001) was added and incubated in the dark for 30 minutes. […] Absorbance was measured at 450 nm on a microplate reader (BioRad, iMark Microplate reader).

[3] = target: T4, human C2b fragment (huC2b); assay: as above
[4] = target: T5, human complement factor C2; assay: SPR (Biacore), C2 coated on the chip, Fab in solution, 1:1 model; C2 on the chip, Fab in solution

Binder | binding result (mouse C2) | binding result [1] | binding result [2] | binding result [3] | Kd [4] [nM]
B1 | no binding | no binding | binds | binds | –
B2 | – | – | – | – | ~0.3
